This note sets out measurements from doi:10.1101/2022.05.03.490496.

In the assay the target is amino-terminal ∼1400 amino-acid segment of human MUC2 (human). The experiment in a line: western blot of disulfide-bonded dimers.

Take “amino-terminal ∼1400 amino-acid segment of human MUC2 (domain or fragment)”: the stoichiometry N worked out at 2.
